B1: SRC kinase associated phosphoprotein 1 (SKAP1), wild type, N2-fused [human] / FYN (isoform without exon 7), C1-fused [not stated] (parent complex)
chain 1: MQAAALPEEIRWLLEDAEEFLAEGLRNENLSAVARDHRDHILRGFQQIKARYYWDFQPQGGDIGQDSSDDNHSGTLGLSLTSDAPFLSDYQDEGMEDIVKGAQELDNVIKQGYLEKKSKDHSFFGSEWQKRWCVVSRGLFYYYANEKSKQPKGTFLIKGYGVRMAPHLRRDSKKESCFELTSQDRRSYEFTATSPAEARDWVDQISFLLKDLSSLTIPYEEDEEEEEKEETYDDIDGFDSPSCGSQCRPTILPGSVGIKEPTEEKEEEDIYEVLPDEEHDLEEDESGTRRKGVDYASYYQGLWDCHGDQPDELSFQRGDLIRILSKEYNMYGWWVGELNSLVGIVPKEYLTTAFEVEER
chain 2: not shown
B2: SRC kinase associated phosphoprotein 1 (SKAP1), wild type, N2-fused [human] / LYN, C1-fused [not stated] (parent complex)
chain 1: B1 chain 1
chain 2: MGCIKSKGKDSLSDDGVDLKTQPVRNTERTIYVRDPTSNKQQRPVPESQLLPGQRFQTKDPEEQGDIVVALYPYDGIHPDDLSFKKGEKMKVLEEHGEWWKAKSLLTKKEGFIPSNYVAKLNTLETEEWFFKDITRKDAERQLLAPGNSAGAFLIRESETLKGSFSLSVRDFDPVHGDVIKHYKIRSLDNGGYYISPRITFPCISDMIKHYQKQADGLCRRLEKACISPKPQKPWDKDAWEIPRESIKLVKRLGAGQFGEVWMGYYNNSTKVAVKTLKPGTMSVQAFLEEANLMKTLQHDKLVRLYAVVTREEPIYIITEYMAKGSLLDFLKSDEGGKVLLPKLIDFSAQIAEGMAYIERKNYIHRDLRAANVLVSESLMCKIADFGLARVIEDNEYTAREGAKFPIKWTAPEAINFGCFTIKSDVWSFGILLYEIVTYGKIPYPGRTNADVMTALSQGYRMPRVENCPDELYDIMKMCWKEKAEERPTFDYLQSVLDDFYTATEGQYQQQP
B3: SRC kinase associated phosphoprotein 1 (SKAP1), wild type, N2-fused [human] / FRK, C1-fused [not stated] (parent complex)
chain 1: B1 chain 1
chain 2: MSNICQRLWEYLEPYLPCLSTEADKSTVIENPGALCSPQSQRHGHYFVALFDYQARTAEDLSFRAGDKLQVLDTLHEGWWFARHLEKRRDGSSQQLQGYIPSNYVAEDRSLQAEPWFFGAIGRSDAEKQLLYSENKTGSFLIRESESQKGEFSLSVLDGAVVKHYRIKRLDEGGFFLTRRRIFSTLNEFVSHYTKTSDGLCVKLGKPCLKIQVPAPFDLSYKTVDQWEIDRNSIQLLKRLGSGQFGEVWEGLWNNTTPVAVKTLKPGSMDPNDFLREAQIMKNLRHPKLIQLYAVCTLEDPIYIITELMRHGSLQEYLQNDTGSKIHLTQQVDMAAQVASGMAYLESRNYIHRDLAARNVLVGEHNIYKVADFGLARVFKVDNEDIYESRHEIKLPVKWTAPEAIRSNKFSIKSDVWSFGILLYEIITYGKMPYSGMTGAQVIQMLAQNYRLPQPSNCPQQFYNIMLECWNAEPKERPTFETLRWKLEDYFETDSSYSDANNFIR
B4: SRC kinase associated phosphoprotein 1 (SKAP1), wild type, N2-fused [human] / BLK, C1-fused [not stated] (parent complex)
chain 1: B1 chain 1
chain 2: not shown
B5: SRC kinase associated phosphoprotein 1 (SKAP1), wild type, N2-fused [human] / SRMS, C1-fused [not stated] (parent complex)
chain 1: B1 chain 1
chain 2: MEPFLRRRLAFLSFFWDKIWPAGGEPDHGTPGSLDPNTDPVPTLPAEPCSPFPQLFLALYDFTARCGGELSVRRGDRLCALEEGGGYIFARRLSGQPSAGLVPITHVAKASPETLSDQPWYFSGVSRTQAQQLLLSPPNEPGAFLIRPSESSLGGYSLSVRAQAKVCHYRVSMAADGSLYLQKGRLFPGLEELLTYYKANWKLIQNPLLQPCMPQKAPRQDVWERPHSEFALGRKLGEGYFGEVWEGLWLGSLPVAIKVIKSANMKLTDLAKEIQTLKGLRHERLIRLHAVCSGGEPVYIVTELMRKGNLQAFLGTPEGRALRLPPLLGFACQVAEGMSYLEEQRVVHRDLAARNVLVDDGLACKVADFGLARLLKDDIYSPSSSSKIPVKWTAPEAANYRVFSQKSDVWSFGVLLHEVFTYGQCPYEGMTNHETLQQIMRGYRLPRPAACPAEVYVLMLECWRSSPEERPSFATLREKLHAIHRCHP

Variants of: B1
Test: luciferase complementation assay (normalized luciferase ratio, NLR); HEK293T cells; one experiment; read off a plot

Row | ratio to parent | Variant
1 | ~1.2 | chain 1 W333K

Variants of: B2
Test: as above

Row | ratio to parent | Variant
2 | ~2 | chain 1 W333K

Variants of: B3
Test: as above

Row | ratio to parent | Variant
3 | ~1.2 | chain 1 W333K
4 | ~1.9 | chain 1 D120K

Variants of: B4
Test: as above

Row | ratio to parent | Variant
5 | ~1.8 | chain 1 W333K

Variants of: B5
Test: as above

Row | ratio to parent | Variant
6 | ~1.3 | chain 1 W333K

Reference: publication PMC10939263 (2024)
